# B1: Cu-containing nitrite reductase (recombinant NirK) from Nitrosococcus oceani NS58 (Nitrosococcus oceani ATCC 19707) (protein)
# chain: ADGEASSYIANIGTHANLKDLERVRQELVAPPHLPDHQQAYSGKPRIVEIEMVIEEKEVEIEPNVFVQAMTFNGTNPGPIIVVHEGDYVELTLKNLDTNMLLHNIDFHPATGALGGGALTKVAPGQQVTLRFKADKAGTYVYHCAPGGLMTPYHVVSGMYGAIMIFPKKGLRDQNGKKVTYDKAYYVGEQGWYIPKDKNGKYKRYANAIEPYGDTLEVMRGLVPTHVTYNGSKGALTGDNAMKAKVGDSVLFIHSQANEDSRIHLIGGHGDLVWPGGSFKNTPMVDKETWHVNGGESVAALYTFKQPGLYAYLNHNLIQAFMLGGAAHVKVDGEWNNDLMEQVVKPSPINAD
# Substrate: O=NO
# Experiment: nitrite consumption, diazo-coupling colorimetric assay; Hanes-Woolf plot
# Assay type: biochemical, Nitrosococcus oceani
# Conditions: reduced methylviologen (dithionite) as electron donor, pH 5.5 (optimal), 30 mM CPT buffer, 37°C, under mineral oil, kcat per subunit
protein,measurement,value
B1,Km,52 µM
same,kcat,1600 s⁻¹
